Laboratory results reported in patent US9034341B2, “Control of RAGE fusion protein glycosylation and RAGE fusion protein compositions” (TransTech Pharma, LLC, priority 2009, dated 2015).

T1: S100b (Bos taurus, UniProt P02638)
T1 construct: purchased Calbiochem 559290
T1 sequence (P02638 1-92): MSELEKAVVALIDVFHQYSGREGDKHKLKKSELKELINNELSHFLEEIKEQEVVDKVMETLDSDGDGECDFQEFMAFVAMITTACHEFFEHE


Key:
S100b = target: T1, S100b; assay: S100b binding ELISA; conditions: for Relative binding compared to control: binding to S100b relative to S1 control (untreated sRAGE-Ig)
Method: Peak fraction collection for S100b binding assay: sRAGE-Ig fusion protein samples were concentrated to 4.0 mg/mL using a 10K Amicon Ultra filtration column (Millipore, Bedford, Mass.) and then separated under the reversed-phase conditions for glycan site occupancy as described above. Three fractions representing the site occupancy variants of sRAGE-Ig were collected as triply glycosylated (fraction one, F1), doubly glycosylated (fraction two, F2), and aglycosylated (fraction three, F3). The collected samples were concentrated and exchanged into a stabilizing buffer. Protein concentration of the fraction samples was determined by 280 nm absorbance with a DU 650 spectrophotometer (Beckman Coulter, Fullerton, Calif.) before subjecting the protein to the S100b ELISA binding assay.
(§1) S100b binding ELISA: An ELISA assay plate was coated with 100 μL/well of 20 μg/mL S100b protein (Cat. No. 559290, Calbiochem, Gibbstown, N.J.) in coating buffer (Tris buffered saline [TBS], pH8.0, with 5 mM CaCl2) overnight at 4° C. The plate was then washed three times with blocking buffer (TBS pH8.0, with 5 mM CaCl2, 0.05% Tween20, and 1% bovine serum albumin [BSA]), and blocked with the blocking buffer for 1-1.5 hr. sRAGE-Ig fusion samples were prepared in a separate dilution plate, the highest concentration was 10 μg/mL in blocking buffer, with 1:4 serial dilution in blocking buffer down to 2.4 ng/mL. After blocking, the assay plate was washed with the blocking buffer and 100 μL of the samples were transferred from the dilution plate to the assay plate. The assay plate was incubated at room temperature for 2.5 hr. The assay plate was then washed three times with the blocking buffer, with 1 min soaking time between the washes. The horseradish peroxidase conjugated goat anti-human IgG (Cat. No. A2290, Sigma, St. Louis, Mo.) was added to the plate with 100 μL/well at 1:2500 dilution in the blocking buffer. The plate was incubated for 1 hr at room temperature. The assay plate was then washed three times with the blocking buffer again, and 100 μL 3,3′,5,5′-tetramethylbenzidine (TMB; Cat. No. 34022, Pierce, Rockford, Ill.) was added to each well and the plate was incubated for 8 minutes at room temperature. 100 μL of 1M H2SO4 was then added to each well, the plate was shaken and read at 450 nm on a microplate reader.

[1] = system: human Aβ peptides (Aβ1-40, Aβ1-28); assay: Aβ peptide binding ELISA; conditions: for Relative binding compared to control: binding to Abeta relative to S1 control
human Aβ peptides (Aβ1-40, Aβ1-28), sequence (P05067 672-699 limits assumed): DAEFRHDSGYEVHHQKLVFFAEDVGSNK
Method: as §1
Assay for Aβ peptide binding activities: Briefly, two human Aβ peptides were tested: Aβ1-40 (Catalogue# A-1153-2, Rpeptide), and Aβ1-28 (Catalogue#24232, AnaSpec). The plates were coated by 20 μg/mL peptide in 1% NH4OH overnight at 4° C. The plate was then washed with blocking buffer (TBS pH8.0, 0.05% Tween20, and 1% BSA) and blocked for 1 hr at room temperature. All the other steps were performed essentially as described previously herein for S100b binding assay, supra.

[2] = versus unfractionated untreated S1

| Molecule | Relative binding compared to control (S100b) [%] | Relative binding compared to control [1] [%] | fold increase in binding to S100b compared to fully occupied 3-glycan version (S100b; versus S1F1) | fold increase in binding to S100b compared to S1 control (S100b; [2]) | fold increase in binding to Abeta compared to fully occupied 3-glycan version ([1]; versus S2F1) | fold increase in binding to Abeta compared to S1 control [1, 2] |
| --- | --- | --- | --- | --- | --- | --- |
| S1F2: sRAGE-Ig fraction from untreated cells, 2-glycan occupancy (protein) QNITARIGEPLVLKCKGAPKKPPQRLEWKLNTGRTEAWKVLSPQGGGPWDSVARVLPNGSLFLPAVGIQDEGIFRCQAMNRNGKETKSNYRVRVYQIPGKPEIVDSASELTAGVPNKVGTCVSEGSYPAGTLSWHLDGKPLVPNEKGVSVKEQTRRHPETGLFTLQSELMVTPAPGGDPRPTFSCSFSPGLPRHRALRTAPIQPRVWEPVPLEEVQLVVEPEGGAVAPPSVFLFPPKPKDTLMISRTPEVTCVVVDVSHEDPEVKFNWYVDGVEVHNAKTKPREEQYNSTYRVVSVLTVLHQDWLNGKEYKCKVSNKALPAPIEKTISKAKGQPREPQVYTLPPSRDELTKNQVSLTCLVKGFYPSDIAVEWESNGQPENNYKTTPPVLDSDGPFFLYSKLTVDKSRWQQGNVFSCSVMHEALHNHYTQKSLSLSPGK | 173 | 170 |  |  |  |  |
| S1F1: sRAGE-Ig fraction from untreated cells, 3-glycan occupancy (protein) QNITARIGEPLVLKCKGAPKKPPQRLEWKLNTGRTEAWKVLSPQGGGPWDSVARVLPNGSLFLPAVGIQDEGIFRCQAMNRNGKETKSNYRVRVYQIPGKPEIVDSASELTAGVPNKVGTCVSEGSYPAGTLSWHLDGKPLVPNEKGVSVKEQTRRHPETGLFTLQSELMVTPAPGGDPRPTFSCSFSPGLPRHRALRTAPIQPRVWEPVPLEEVQLVVEPEGGAVAPPSVFLFPPKPKDTLMISRTPEVTCVVVDVSHEDPEVKFNWYVDGVEVHNAKTKPREEQYNSTYRVVSVLTVLHQDWLNGKEYKCKVSNKALPAPIEKTISKAKGQPREPQVYTLPPSRDELTKNQVSLTCLVKGFYPSDIAVEWESNGQPENNYKTTPPVLDSDGPFFLYSKLTVDKSRWQQGNVFSCSVMHEALHNHYTQKSLSLSPGK | 46 | 102 |  |  |  |  |
| S2F2: sRAGE-Ig fraction from TMYCN treated cells, 2-glycan occupancy (protein) QNITARIGEPLVLKCKGAPKKPPQRLEWKLNTGRTEAWKVLSPQGGGPWDSVARVLPNGSLFLPAVGIQDEGIFRCQAMNRNGKETKSNYRVRVYQIPGKPEIVDSASELTAGVPNKVGTCVSEGSYPAGTLSWHLDGKPLVPNEKGVSVKEQTRRHPETGLFTLQSELMVTPAPGGDPRPTFSCSFSPGLPRHRALRTAPIQPRVWEPVPLEEVQLVVEPEGGAVAPPSVFLFPPKPKDTLMISRTPEVTCVVVDVSHEDPEVKFNWYVDGVEVHNAKTKPREEQYNSTYRVVSVLTVLHQDWLNGKEYKCKVSNKALPAPIEKTISKAKGQPREPQVYTLPPSRDELTKNQVSLTCLVKGFYPSDIAVEWESNGQPENNYKTTPPVLDSDGPFFLYSKLTVDKSRWQQGNVFSCSVMHEALHNHYTQKSLSLSPGK | 180 | 238 |  |  |  |  |
| S2F1: sRAGE-Ig fraction from TMYCN treated cells, 3-glycan occupancy (protein) QNITARIGEPLVLKCKGAPKKPPQRLEWKLNTGRTEAWKVLSPQGGGPWDSVARVLPNGSLFLPAVGIQDEGIFRCQAMNRNGKETKSNYRVRVYQIPGKPEIVDSASELTAGVPNKVGTCVSEGSYPAGTLSWHLDGKPLVPNEKGVSVKEQTRRHPETGLFTLQSELMVTPAPGGDPRPTFSCSFSPGLPRHRALRTAPIQPRVWEPVPLEEVQLVVEPEGGAVAPPSVFLFPPKPKDTLMISRTPEVTCVVVDVSHEDPEVKFNWYVDGVEVHNAKTKPREEQYNSTYRVVSVLTVLHQDWLNGKEYKCKVSNKALPAPIEKTISKAKGQPREPQVYTLPPSRDELTKNQVSLTCLVKGFYPSDIAVEWESNGQPENNYKTTPPVLDSDGPFFLYSKLTVDKSRWQQGNVFSCSVMHEALHNHYTQKSLSLSPGK | 20 | 49 |  |  |  |  |
| S2F3: sRAGE-Ig fraction from TMYCN treated cells, 0-glycan occupancy (aglycosylated variant) (protein, non-natural residues) QNITARIGEPLVLKCKGAPKKPPQRLEWKLNTGRTEAWKVLSPQGGGPWDSVARVLPNGSLFLPAVGIQDEGIFRCQAMNRNGKETKSNYRVRVYQIPGKPEIVDSASELTAGVPNKVGTCVSEGSYPAGTLSWHLDGKPLVPNEKGVSVKEQTRRHPETGLFTLQSELMVTPAPGGDPRPTFSCSFSPGLPRHRALRTAPIQPRVWEPVPLEEVQLVVEPEGGAVAPPSVFLFPPKPKDTLMISRTPEVTCVVVDVSHEDPEVKFNWYVDGVEVHNAKTKPREEQYNSTYRVVSVLTVLHQDWLNGKEYKCKVSNKALPAPIEKTISKAKGQPREPQVYTLPPSRDELTKNQVSLTCLVKGFYPSDIAVEWESNGQPENNYKTTPPVLDSDGPFFLYSKLTVDKSRWQQGNVFSCSVMHEALHNHYTQKSLSLSPGK |  |  | ten-fold | five-fold | six-fold | three-fold |
